Assay results: patent US8518892B2, “Methods to treat symptoms of pathophysiology related to body mass” (Board of Supervisors of Louisiana State University and …, priority 2005, dated 2013)

System: DIO C57BL/6J mice
Assay: Enho 1 ip for 7 days in DIO C57BL/6J mice (Examples 23-25)
Format: in vivo, mouse
Method: (§1) The effect of Enho-1 upon weight loss was tested over the course of 7 days using DIO C57BL/6J mice (Charles River Laboratories). The mice were fed a high fat diet (Research Diets 12492) for 10 weeks prior to the start of the experiment, which was begun when the mice were 15-16 weeks of age. Control mice received vehicle only while test mice each received doses of either 90 nmol/kg/d, 900 nmol/kg/d or 9000 nmol/kg/d. The injections were given as 3 ip injections at 0800, 1200 and 1600 h for 7 days. On day 8, the mice were given the 0800 h injection and were sacrificed 1-3 h later.
as §1, with “insulin and glucose” for “weight loss”, “later at which time blood samples were collected and levels of insulin and glucose determined.” for “later.”
The HOMA-IR for each treatment was calculated using the following formula: ((glucose mg/dL÷18)×(insulin ng/ml×25.05))÷22.5
as §1, with “levels of blood lipids” for “weight loss”, “later at which time blood samples were collected and levels of trigylcerides determined. Triglycerides were measured using a Triglyceride L-Type TG H kit (Wako Diagnostics).” for “later.”

[1] = 90 nmol/kg/d ip, listed as Enho-1
[2] = 900 nmol/kg/d ip, listed as Enho-1
[3] = 9000 nmol/kg/d ip, listed as Enho-1

B1: Enho 1: human Enho 1, a 76 amino acid peptide having the sequence SEQ ID NO: 14 (peptide, listed as Homo sapiens)
chain: MGAAISQGALIAIVCNGLVGFLLLLLWVILCWACHSRSADVDSLSESSPNSSPGPCPEKAPPPQKPSHEGSYLLQP
90 nmol/kg/d ip
  Blood glucose: 182 mg/dL
  Delta body weight: 6.6%
  HOMA-IR: 15
  HOMA-IR decrease as compared to the control group: 15%
  Insulin: 1.3 ng/mL
  TG (blood triglyceride level): 22.5 mg/dL
  Weight (pre-treatment): 36.5 g
  Weight (termination): 34.0 g
[1]
  Blood glucose: 182 ± 17 mg/dL
  HOMA-IR: 15 ± 2
  HOMA-IR decrease as compared to the control group: (↓ 32%)
  Insulin: 1.3 ± 0.1 ng/mL
  TG (blood triglyceride level): 22.5 ± 6.0 mg/dL
  Weight (pre-treatment): 36.5 ± 1.3 g
  Weight (termination): 34.0 ± 1.0 g
900 nmol/kg/d ip
  Blood glucose: 212 mg/dL
  Delta body weight: 7.1%
  HOMA-IR: 29
  HOMA-IR decrease as compared to the control group: 29%
  Insulin: 2.2 ng/mL
  TG (blood triglyceride level): 38.0 mg/dL
  Weight (pre-treatment): 37.9 g
  Weight (termination): 36.0 g
[2]
  Blood glucose: 212 ± 11 mg/dL
  HOMA-IR: 29 ± 4
  Insulin: 2.2 ± 0.3 ng/mL
  TG (blood triglyceride level): 38.0 ± 12.5 mg/dL
  Weight (pre-treatment): 37.9 ± 1.4 g
  Weight (termination): 36.0 ± 1.2 g
9000 nmol/kg/d ip
  Blood glucose: 190 mg/dL
  Delta body weight: 6.7%
  HOMA-IR: 16
  HOMA-IR decrease as compared to the control group: 27%
  Insulin: 1.3 ng/mL
  TG (blood triglyceride level): 18.5 mg/dL
  TG decrease from the control: 19%
  Weight (pre-treatment): 33.8 g
  Weight (termination): 31.6 g
[3]
  Blood glucose: 190 ± 16 mg/dL
  HOMA-IR: 16 ± 4
  HOMA-IR decrease as compared to the control group: (↓ 27%)
  Insulin: 1.3 ± 0.2 ng/mL
  TG (blood triglyceride level): 18.5 ± 1.7 mg/dL
  TG decrease from the control: (↓ 19%)
  Weight (pre-treatment): 33.8 ± 0.8 g
  Weight (termination): 31.6 ± 0.7 g
